Here are results for two substances from paper PMC4992171.

Experiment [1] deals with IFP2.0. Description: SEC; side-by-side comparison of miRFPs with IFP2.0 and iRFP713 (Supplementary Fig. 3 or 4), HiLoad 16/600 Superdex 200; concentration not given.
Experiment [2] concerns the target IFP2.0. Kind of experiment: AUC; sedimentation velocity, 20 °C, 58,000 r.p.m., PBS, absorbance at 645 nm, protein at A645 ≈0.9; side-by-side comparison of miRFPs with IFP2.0 and iRFP713.
In experiment [3] the target is iRFP713. Description: SEC; side-by-side comparison of miRFPs with IFP2.0 and iRFP713 (Supplementary Fig. 3 or 4), HiLoad 16/600 Superdex 200; concentration not given. (SEC sorts molecules by how far they enter the pores of the column.)
Experiment [4] concerns the target iRFP713. Kind of experiment: AUC; sedimentation velocity, 20 °C, 58,000 r.p.m., PBS, absorbance at 645 nm, protein at A645 ≈0.9; side-by-side comparison of miRFPs with IFP2.0 and iRFP713.

As a reminder, the stoichiometry N is the number of molecules, sites or subunits per partner or assembly. As to IFP2.0, the stoichiometry N with IFP2.0 [1] and in the experiment with IFP2.0 [2] was 2 in each case.
Take iRFP713: the stoichiometry N with iRFP713 [3] and in the experiment with iRFP713 [4] was 2 each time.
